Reference: the supplement of paper PMC12636428

System: Saccharomyces cerevisiae
Test: transcriptional activation domain activity (GFP:mCherry ratio, weighted mean of sorted bins, harmonized to initial dataset scale) (arbitrary fluorescence ratio units); higher = stronger transcriptional activation
Conditions: beta-estradiol 1 µM; induction time 4 h
How it was run: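 The listed activation activity is a read-weighted mean of bin median fluorescence, averaged across barcodes and linearly mapped onto the initial dataset scale. Barcoded tiles, fused to an estradiol-inducible synthetic transcription factor, were integrated at URA3 in yeast diploids bearing a GFP reporter. Cells were held 4 hours at 30 °C in SC with 1 uM beta-estradiol, sorted into 8 GFP:mCherry bins, and sequenced, and tiles with fewer than 50 reads were excluded.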

Sequence	transcriptional activation domain activity
MASEQVEEVTKKVADVAIEAPAAAPAKAPKAPKAPKAKKAKKEAAEGSSPLEL	13700
MASGILGLLVVNFVLLLICFIAYSSQIFVIWPWYGRTVSVELISLLLPFNILV	42800
MASKDPVYDEKTGAPKLVAESDSSNVETGGGTPERTLHRQLKNRHIAMISIGG	44900
MASLRNHAEQLNAAVYRNYKKDRKVGEGAYAVVYLGTQLSTKKVVAIKKIKVG	49800
MASPASSTEQQRAAKRKSHRKSRNGCFQCKQRHSKVSQSSTLLAAAASNLSRT	27100
MASQATTLRGYNIRKRDNVFEPKSSENLNSLNQSEEEGHIGRWPPLGYEAVSA	50300
MASSTPRVRSLYRRLLRELPTHPSATPNTTTAASRTTPSKYRSTAHQKLSAPS	31700
MASSTSPSPSTTSIKSEVAPGRTVACLRCRGRRQFCSKERPQCKKCRDARAEC	28800
MASVVCCTELWCLFGLDVCFFPFSLFALPLVLSPSLFPLSSLSFIIFLFFPVS	54700
MATAEPTKKRGRPKKVVLVEESAGNAEAVVAEVVKKTTTKKTSTKAPAAPVTT	40300
MATDATVNAPASAEATTARRRRSHQKSRLGCRNCKLRRVKCDERRPRCVKCRE	35500
MATFLSCLRPFVCSFFLFSFLFRPWPWVYIHVGFGGNSCSTFDFLSIFFVTFF	43300
MATLDEALDNEGGKRRRSHKKSRRGCGDCRRRRVKCSEENPRCQACVRRGVQC	67400
MATLDVFLRVYCFTLSFLLFLFLIIIFILAYSAFAVDFFFLFVYSSTIELCFI	36200
MATLLGGFWFLVLCSIMLSALLTPLILLTGSLILLSFGSFPSLPHWLLIIIVH	62400
MATPSTGAPPPKQIRFVNNQGQPPSKRRRVNAACLTCRKRKTRCDGEKPTCST	20200
MATRHVSAANNANKPRACLTCRTSKHKCDGNDRSTAPCSRCLRTGKSCIWPAK	33800
MATVISGVCFFFFFFFFCFLLCLVMAFLLLFSFLFLCDLLLRLLLLSPSFDSL	31200
MAVETVGLGWRTLRSLIIEFILFYCLFTALGYNSLSLLNYRPWIFFSFLFCLF	57500
MAVIWGLDLKDMQWSKFKGSYMFNNVYHLRKVKMIVYQIAMILCVVSESVGTA	66800
MAVNDGFLFVFSCLFFLIFVTLLLTFPFLFFGSSHFHMGNPPVFPLLILISCY	47200

Sequence	transcriptional activation domain activity
MAVSIWDFVLCIFPHLHFLCLWIVFLSLFMFSYCFKFRFTPVLLTISLPRCFF	51200
MAWAIQGRLFSFNCSCSHFIFWPLFFFFSLPWRAWSSIGNNSRFSRLFFFFFL	60900
MAWAYGSCLCRCCFFFASLWQFLFFVFGFLPFWPFFGFLLFISVVLPPSSLFL	46100
MAWHFVWQDIPLMGTMHQISYLLNNFIYCFPIAHVHLQVCFFSSLLLIHFYTF	68200
MAYLFLYFTIFFIFFFIAGDGGDDCEIFFLFFFFSFKALFTPFFYLYLYWTSA	25400
MCAASSEGASLSPASSLQRGKACLACRRRKMRCDGARPTCGQCVRGNRVDDCE	21200
MCACRLFNQICFINKPCRIVNLSISIVYINWGMLLCVMRSDVLSLYLLIMLPV	80000
MCARSLFCGYIFFLVLYLLAWLGVFPCPFTLFLLSFLFPIFFFLLCWRLAFAC	45800
MCASVILFCLVFSSSYLLAIFKDCYLALLYYMQCWSMYYLFSDFVCHYPISKG	72200
MCCAECCLSSLVSFVSFFSRSLHSLTIRGFFLFPGTFHVILFLFFRFFIFFFH	47400
MCCEAEWKREVVQDHKFDFINVSEFHRTDILTRLKYVWKYILILKAFAVMGLD	53700
MCCLLLFSPSFLCFFFAFFFYFTFYMTHLSDFSFLQRAIGLTYVFIWLIYRAH	38100
MCCLLVVLVALSGVGDFFFFSLLLLLLLLERGGVFFLFWLFFFYLFILFFHRG	57000
MCCLVLSLALLGRHGGMNIFFLCFYVGSFVFIFLRVLVVRLLLLLLLCYYQAL	70200
MCDLFYTHLISPLFPNMPFWVFFCRLFLLFSLLQCSFICGPFVAVLSYCWLSF	54600
MCEGDFCVFFCVCVCVCVCLCVLFCFLFWFLFWWLLFFFLVMLFLAVGVFVYI	35400
MCEQHTCLFVLLSVKLLLWRLLFFVESSFLDGMELVLTGRWWAYYIYLWCLTV	54400
MCFEFHPFSTSMFYLLSILFLDLSFWLSFYFFMSIVHSVALEFLFVFSLNFFV	42600
MCFFSFFLFLLRIWLLFCLLLSIPLGFRMRSWGVPTAFVTILHFSLVMHLITV	59900
MCFRILLSFLHVHPLFENALFYEISLICLLISWRSSTCSMHLLFIFIFILFFC	42200
MCFVVFIRWELLMISHCAVVYLLLLFLLFIVHYFLIEGFLFLYVLVRAFAFVL	41900

Sequence	transcriptional activation domain activity
MCGGGWAFGLFFFFLYFFFFFLHIALLLPPLETVYFVLFFCMISRGLCFIFFF	65400
MCGGSFSLHRLHFFFIYVCFFCFVLSCLFTLAYWVVLYYARLVMGFWWFWWFG	58300
MCGLVFLFLFPFVFSSFIGGVAIFFFSYFFYFIYFILQHTRILTCTWSVFLLF	75400
MCGRLISLLVVLLLVKFRNSSLCGILDVFLFFFRRTPFVRMGFYFMIFLLLTI	65500
MCHLTLLSLCFCSVASLLLSLFPLSLCLPFFILFIPPLFFLPHHIPSSFSFLV	59600
MCIFFCPVSSLEVIWSVFLVFFYGYIFFTFFFLQCRSMVLIIPFLFTLVFHIF	42700
MCIFFKGQYPIYLAFVRPFASLFFRVPLFRLFFGIFCAWVLCFLFLLLLSFSC	43600
MCIICVLYVYYMYICFVCVHCICFYIFVHRFCLSVCMFFFFFFFFVCFINIIL	69900
MCIKLPLYPASFFIHRSLPLITSVFDLNLTLMVSLCPRIVPISFFACALLLVP	53000
MCILSLFTAWAGLTLFTCIFSFFLLCIVNALLGQNGVGGLLTARRFNTILRVC	54400
MCINMYFWKVFFMWTLIFFGLSYIPLSFPGMSYFCLLQHKVFLIILGNHFLRF	56800
MCINMYFWKVFFMWTLIFFGLSYIPLSFPGMSYFFLLQHEIFLIILGNHFLRF	42000
MCISRYWICLGKGSVLGYHSFIICFYLGLVEMMGYPLFAFFSLLFIRFLLFLS	43700
MCKKGKGVAIGPLSLSWFFNLSLVIFSLLSSLQSLWFLPWPLNFVLMVPVHFV	79900
MCKVSCLGLFGGSFFFFGFGFYLLFYSSFHFSLPGWLVWILYFFFTFFGGSLR	45900
MCLCLLLLLLLHVFIFFMSFYPSGWPPSYSIIFFLWSFILVVFYPCKFFFLVV	70400
MCLFVLCLGLLVFFPTRYLLRSAWIKFIKYFNLFLRIIDLGCLFCIPCLIIKY	42500
MCLLCHATLFSSCPYFSIFLVFSFFSFFSLFFFTSFLSLLLFMSLLPTYYHLY	43500
MCLLGDGRHPEFFIFYFLYHFFLLYLLFYPQAFSRYLFIWMGCLNCFYFRFGL	41000
